System: MS2 coat protein
Assay: apparent KD of MS2 coat protein; designed switch direction (-1 OFF switch, 1 ON switch): -1; higher = weaker reporter binding
In short: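 Designed RNA switches sharing common flanks were transcribed on Illumina chips by stalled E. coli RNA polymerase. They were titrated with SNAP-549-labelled MS2 coat protein, from 0.7 or 1.5 nM doubling to 3 µM, in Tris-HCl pH 7.5 buffer with KCl, MgCl2, BSA, DTT, tRNA and Tween-20. Titrations ran without input, with 200 uM small-molecule ligand, or with an oligonucleotide input. The apparent KD of each design is the median over its clusters, after curve-fitting of normalised cluster fluorescence.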

[1] = input ligand: microRNA oligo, concentration not stated
[2] = Eterna round: R95, input ligand: FMN 200 uM
[3] = Eterna round: R95, input ligand: microRNA oligo, concentration not stated
[4] = Eterna round: R95, input ligand: none

Row | Sequence | apparent KD of MS2 coat protein (input ligand: FMN 200 uM) | apparent KD of MS2 coat protein [1] | apparent KD of MS2 coat protein (input ligand: none) | other results
1 | UAGUGAAACACAGGAUAUCGCCUCUUAUUACAUGAGGAUCACCCAUGUUUAGUUAGUUACAUGUACGAGAAGGGUGAAGUAGUU [JR_ExcNG2_Sub040] (Eterna round: R96, puzzle: Exclusion NG 2) | 1110 nM | 674 nM | 1430 nM | –
2 | UAGUGGUUACGUUGGAGUUGUAUGAGCGGAGGCUCUGUGACAUGAGGAUCACCCAUGUAGCUUUUUGCUCGUCUUAA [JR_SV3TOV2_Sub039] (puzzle: Sensor v3, turn-off variant 2) | – | – | – | apparent KD of MS2 coat protein [2]: 22.5 nM; apparent KD of MS2 coat protein [3]: 41.5 nM; apparent KD of MS2 coat protein [4]: 22.6 nM
3 | UAUAAACAUGAGGAUCACCCAUGUGAGGAUAUCUAAACCAGAGCGGAUCUCUGGACCAAGAGAAGGUGCAUGGU [ElNandoxlusion 10 - Jieux - Exclusion 1] (Eterna round: R97, puzzle: Exclusion 1) | 66.9 nM | – | 31.7 nM | –
4 | UAUAAAGGCUCAGGAUAUGGUGCGUCACAUGAGGAUCACCCAUGUAACGUGGCGGAACCUGCGCGCUAGAAGGGAGUAGCGAAA [Laensoqu] (Eterna round: R96, puzzle: Exclusion NG 2) | 8.44 nM | 8.05 nM | 10.7 nM | –
5 | UAUAAGAUAGGAUAUACAGGCCCGUCUUCAUAUUGAUCCCGACAUGAGGAUCACCCAUGUAGAAGGAUCGUAUA [Mod 23 - Jieux - Exclusion 2] (Eterna round: R97, puzzle: Exclusion 2) | 23.3 nM | – | 21.9 nM | –
6 | UAUAAUCGAGGAUAUACAUGAGGAUCACCCAUGUGUUGCCGCGUGACAUGAUCGUCAGGUAGAAGGCGAUUAUA [Exclusion 3 - Mod of Jieux's Gilly Gone Silly 23 v.10] (puzzle: Exclusion 3) | – | – | – | apparent KD of MS2 coat protein [3]: 147 nM
7 | UAUAUAUAGUAAGGAUAUAUAUUUUUUUUUUAAAUAGAAGGUACAGACAUGAGGAUCACCCAUGUUAUAAUAUGGACAUGUGGA [JMF's Solution 3] (Eterna round: R96, puzzle: Exclusion NG 1) | – | 113 nM | – | –
8 | UAUAUAUAGUAAGGAUAUGUAAUUAUUUUAUACACAGAAGGUACUGACAUGAGGAUCACCCAUGUUUUAGUGUGGGCAUGUAGA [JMF's solution 51] (Eterna round: R96, puzzle: Exclusion NG 1) | – | 47.1 nM | – | –
9 | UAUAUAUAGUAAGGAUAUGUAAUUAUUUUAUUAACAGAAGGUACUGACAUGAGGAUCACCCAUGUUUUAGUGUGGGCAUGUAGA [JMF's solution 47] (Eterna round: R96, puzzle: Exclusion NG 1) | – | 72.6 nM | – | –
10 | UAUAUAUAGUAAGGAUAUGUAGUUAUUUUAUAAACAGAAGGUACUGACAUGAGGAUCACCCAUGUUUUAGUGUGGGCAUGUAGA [JMF's solution 6] (Eterna round: R96, puzzle: Exclusion NG 1) | – | 71.1 nM | – | –
11 | UAUAUAUAGUAAGGAUAUGUAUUAAUGUUAUAAACAGAAGGUACUGACAUGAGGAUCACCCAUGUUUUAGUGUGGGCAUGUAGA [JMF's solution 78] (Eterna round: R96, puzzle: Exclusion NG 1) | – | 73.8 nM | – | –
12 | UAUAUAUAGUAAGGAUAUGUAUUAAUUGUAUAAACAGAAGGUACUGACAUGAGGAUCACCCAUGUUUUAGUGUGGGCAUGUAGA [JMF's solution 81] (Eterna round: R96, puzzle: Exclusion NG 1) | – | 71.7 nM | – | –
13 | UAUAUAUAGUAAGGAUAUGUAUUAAUUUUACAAACAGAAGGUACUGACAUGAGGAUCACCCAUGUUUUAGUGUGGGCAUGUAGA [JMF's solution 89] (Eterna round: R96, puzzle: Exclusion NG 1) | – | 45.9 nM | – | –
14 | UAUAUAUAGUAAGGAUAUGUAUUAAUUUUAUCAACAGAAGGUACUGACAUGAGGAUCACCCAUGUUUUAGUGUGGGCAUGUAGA [JMF's solution 92] (Eterna round: R96, puzzle: Exclusion NG 1) | – | 65.2 nM | – | –
15 | UAUAUAUAGUAAGGAUAUGUAUUUAUUUCAUAAACAGAAGGUACUGACAUGAGGAUCACCCAUGUUUUAGUGUGGGCAUGUAGA [JMF's solution 21] (Eterna round: R96, puzzle: Exclusion NG 1) | – | 62.1 nM | – | –
16 | UAUAUAUAGUAAGGAUAUGUAUUUAUUUUGUAAACAGAAGGUACUGACAUGAGGAUCACCCAUGUUUUAGUGUGGGCAUGUAGA [JMF's solution 22] (Eterna round: R96, puzzle: Exclusion NG 1) | 147 nM | 78.5 nM | 141 nM | –
17 | UAUAUGUCAGGAUAUUAGUAGUAAAUGAAUAAAAUUAUUACUGAGAAGGGACAUGAGGAUCACCCAUGUGCCUC [Mat - Exclusion 4 - Eli Mod - D24] (Eterna round: R97, puzzle: Exclusion 4) | 387 nM | – | 37.4 nM | –
18 | UAUAUGUCAGGAUAUUAGUAGUGGAUGAAUAAGAUUAUUGCUGAGAAGGGACAUGAGGAUCACCCAUGUUCCUC [JR_Ex4_Sub002] (Eterna round: R97, puzzle: Exclusion 4) | 27.5 nM | – | 18.5 nM | –
19 | UAUAUGUGAGGAUAUCAGGUGUGCUAGCGAACUGGUACAUCUGAGAAGGCACAUGAGGAUCACCCAUGUAUCUU [Mat - Exclusion 4 - Mod of JL - D46] (puzzle: Exclusion 4) | – | – | – | apparent KD of MS2 coat protein [3]: 26.3 nM
20 | UAUCAGCAAGUGAGGAUAUAGAGAACGGUUGUUGGCUAGAAGGCACUUGAGGAUCACCCAAGUCGCAAAGUGGC [Mamausonbe] (Eterna round: R97, puzzle: Brourd's mod of Exclusion 4) | 134 nM | – | 29.3 nM | –
21 | UAUCAUCAUGUAGGAUAUGCGUGGCAAAGCUAUGCAGAAGGACAUGAGGAUCACCCAUGUUCUAGCGUCUGCGUACAGAUGCUA [Mat - Exclusion NG 1 - Mod of JL - D74] (Eterna round: R96, puzzle: Exclusion NG 1) | 247 nM | 45.2 nM | 68.7 nM | –
22 | UAUCGGCGGACCCAGGCUUUUUGCUCGUCUUAUGCUAUGACAUGAGGAUCACCCAUGUGGUGGUGGUCCGUUGUAGU [JL ViennaUCT Bitein mod 11] (puzzle: Sensor v3, turn-off variant 2) | – | – | – | apparent KD of MS2 coat protein [2]: 21.1 nM; apparent KD of MS2 coat protein [3]: 11.3 nM; apparent KD of MS2 coat protein [4]: 19.5 nM
23 | UAUCGGGACUGAGGAUAUUCGUUCGAACGCGAAGAAGAAGGUAGUGUCAGGGACAUGAGGAUCACCCAUGUGAUUUCAGUCCCA [JL ViennaUCT Erinle mod 5] (Eterna round: R96, puzzle: Exclusion NG 1) | 98.2 nM | 56.1 nM | 99 nM | –
24 | UAUCUACAUGAGGAUCACCCAUGUGAGGAUAUCAAAACCAGAGCGGAUCUCUGGCCCAUGAGAAGGUACAUGGU [ElNandoxlusion 5 - Jieux - Exclusion 1] (Eterna round: R97, puzzle: Exclusion 1) | 59.2 nM | – | 20 nM | –
25 | UAUGGUUAAGUCAGGAUAUGCACGAAGAGAACAAAGCAGAAGGGACAUGAGGAUCACCCAUGUAAAGUCGUGUU [Ex4 #76] (Eterna round: R97, puzzle: Brourd's mod of Exclusion 4) | 28.4 nM | – | 32 nM | –
26 | UAUUAAACAAGCAGAUCCCACAUGAGGAUCACCCAUGUGCUCGUCUUAUAAGGUACUGUGACGAGAGUCACGGUACC [Mat - Sensor, turn-off var - Eli Mod - D63] (Eterna round: R97, puzzle: Sensor, turn-off variant 1) | 42.5 nM | – | 45.2 nM | –
27 | UAUUAACAAGCAAGAUCCUACAUGAGGAUCACCCAUGUGCUCGUCUUGUAAGGUACUGUGACGAAAGUCACGGUACC [Sensor 3, v1 - 71] (puzzle: Sensor v3, turn-off variant 1) | – | – | – | apparent KD of MS2 coat protein [2]: 22 nM; apparent KD of MS2 coat protein [3]: 232 nM; apparent KD of MS2 coat protein [4]: 18.9 nM
28 | UAUUAACAAGCAAGGUCCCACAUGAGGAUCACCCAUGUGCUCGUCUUAUAAGGUACUGUGACGAAAGUCACGGUACC [Sensor 3, v1 - 81] (puzzle: Sensor v3, turn-off variant 1) | – | – | – | apparent KD of MS2 coat protein [2]: 32.4 nM; apparent KD of MS2 coat protein [3]: 469 nM; apparent KD of MS2 coat protein [4]: 33.6 nM
29 | UAUUAAGCAAGCAGAUCCCACAUGAGGAUCACCCAUGUGCUCGUCUUAUAAGGUACUGUGACGAAAGUCACGGUACC [Sensor 3, v1 - 91 v12] (Eterna round: R97, puzzle: Sensor, turn-off variant 1) | 126 nM | – | 156 nM | –
30 | UAUUACUCAGGAUAUAUGAUGUGAAACAUGAGGAUCACCCAUGUAAUAUUAUGGAUGUAAAUAGAAGGGAGAUAAU [Mat - Exclusion 5 - JL mod - D21] (puzzle: Exclusion 5) | – | – | – | apparent KD of MS2 coat protein [2]: 37.1 nM; apparent KD of MS2 coat protein [3]: 51.1 nM; apparent KD of MS2 coat protein [4]: 56.9 nM
